In patent US20240109955A1:

What follows are substances tested against SARS-CoV-2 spike protein, original Wuhan strain (WT) (SARS-CoV-2) (UniProt P0DTC2) (assay: cell-based or functional assay).

Chain of A19-46.1 (antibody) (VH): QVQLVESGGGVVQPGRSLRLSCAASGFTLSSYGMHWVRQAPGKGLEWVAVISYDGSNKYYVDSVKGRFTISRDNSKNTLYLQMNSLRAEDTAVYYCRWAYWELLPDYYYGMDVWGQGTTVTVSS
Chain of A19-46.1 (antibody) (VL): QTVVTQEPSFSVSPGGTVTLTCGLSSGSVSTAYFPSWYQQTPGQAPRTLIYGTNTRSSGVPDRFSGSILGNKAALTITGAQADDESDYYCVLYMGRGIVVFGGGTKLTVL
Chain of A19-46 mAb (antibody) (VH): as the sequence (VH) above
Chain of A19-46 mAb (antibody) (VL): as the sequence (VL) above

| Substance | IC50, pseudovirus neutralization [nM] | IC80, pseudovirus neutralization [nM] |
| --- | --- | --- |
| A19-46 mAb (antibody) | 0.263 | 0.778 |
| A19-46.1 (antibody) | 0.263 | 0.778 |
| A19-61 mAb (antibody) | 0.172 | 0.408 |
| B1-182 mAb (antibody) | 0.0264 | 0.0692 |
| B1-182.1 (antibody) | 0.0264 | 0.0692 |
